Results from US20190309074A1, “DEGLYCOSYLATED ANTIBODY SPECIFICALLY BINDING TO CLEC14A AND USES THEREOF” (WOORI TECHNOLOGIES CORPORATION, priority 2016, published 2019).

Experiments:
[1] = aggregation of purified antibody by visual observation and spectrophotometry; type: physicochemical; details: for aggregation by visual observation: purified antibody preparation
Text: In order to identify improved aggregation degree of clone 1 IgG, aggregation of purified parent antibody IgG and clone 1 IgG was compared by visual observation and then was confirmed by spectrophotometry.

[2] = water-soluble antibody weighed after aggregates precipitated and removed by centrifugation; type: physicochemical
Text: For further comparison in stability between parent antibody IgG and clone 1 IgG, a water-soluble antibody was weighed after aggregates were precipitated and removed by centrifugation.

[3] = target: T1, hclec14a-CTLD-Fc (Homo sapiens, UniProt Q86T13); test: ELISA binding specificity
T1 sequence (Q86T13 33-173 limits assumed): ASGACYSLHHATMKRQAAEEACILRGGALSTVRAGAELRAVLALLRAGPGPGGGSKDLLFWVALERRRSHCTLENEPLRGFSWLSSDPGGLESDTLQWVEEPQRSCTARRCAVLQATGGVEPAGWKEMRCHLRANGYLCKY
Text: (§1) Then, the scFv clones were converted into IgG, expressed in human embryonic kidney (HEK) 293 cells and then purified.

[4] = target: T2, mclec14a-CTLD-Fc (Mus musculus, UniProt Q8VCP9); test: ELISA binding specificity
T2 construct: both human and mouse clec14a-CTLDs (hclec14a-CTLD and mclec14a-CTLD)
T2 sequence (Q8VCP9 33-173 limits assumed): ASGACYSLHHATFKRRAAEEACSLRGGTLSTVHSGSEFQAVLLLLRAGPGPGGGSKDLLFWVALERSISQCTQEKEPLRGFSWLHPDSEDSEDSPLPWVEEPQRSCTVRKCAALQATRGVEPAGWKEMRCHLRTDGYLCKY
Text: as §1

[5] = test system: HUVEC tube formation; test: HUVEC tube formation assay; type: cell-based, human; details: branches as % of MOCK
Protocol: Genetic mutation introduced during antibody engineering induces unpredicted defects, resulting in deterioration in antibody functions. In order to isolate antibodies for suppressing clec14a-mediated angiogenesis, tube formation and endothelial cell migration assay using human umbilical vein endothelial cells (HUVECs) were conducted in the presence or absence of clone 1 IgG and deglyco C1-C4 IgGs. Among the four types of deglyco IgGs, deglyco C1 IgG was selected as a candidate antibody. […] In addition, it can be seen that deglyco C1 IgG includes desired alterations (N32R/N33C/S34G) in the amino acid sequence in light chain CDR1.
In order to compare in vitro angiogenesis suppression effect between deglyco C1 IgG and bevacizumab, tube formation and migration assay were conducted in the presence or absence of parent antibody IgG, deglyco C1 IgG or bevacizumab as a positive control group.
In order to investigate in vitro effects of deglyco C1 IgG on VEGF-dependent angiogenesis, HUVECs were treated with VEGF in the presence or absence of deglyco C1 IgG, and then HUVEC tube formation assay was conducted. 150 μl of Matrigel was added to a 48-well plate and incubated at 37° C. for 30 minutes. HUVEC (10^5) cultured in EGM-2 were collected, seeded on the Matrigel-coated plate and incubated at 37° C. for 18 hours in the presence or absence of clone 1 IgG, parent antibody IgG, deglycosylated clec14a-CTLD IgG or bevacizumab. HUVECs cultured in VEGF-containing EBM (endothelial cell basal medium) were seeded to the Matrigel-coated plate and incubated at 37° C. for 18 hours in the presence or absence of deglyco C1 IgG (20 μg ml^−1).

B1: Clone 1 IgG: parent antibody CDRs grafted to the framework region of omalizumab (Xolair®) (antibody, V domains shown)
VH: EVQLVESGGGLVQPGGSLRLSCAVSGFTFSGYDMSWIRQAPGKGLEWVAGIYPDGGNTYYADSVKGRFTISRDDSKNTFYLQMNSLRAEDTAVYYCARGATWWVLGPFDYWGQGTLVTVSS
VL: DIQLTQSPSSLSASVGDRVTITCTGSSSNIGNNSVTWYQQKPGKAPKLLIYADSHRPSGVPSRFSGSGSGTDFTLTISSLQPEDFATYYCGAWDDSLSGYVFGQGTKVEIKR
aggregation by visual observation [1]: not visually observed
aggregation by visual observation ([1]; listed as the antibody substituted with the framework of omalizumab (Xolair®)): no aggregation
Aggregation index ([1]; spectrophotometry, 100×[Abs340/(Abs280−Abs340)]): ~1.5
antibody of the preparation aggregated [2]: no antibody aggregation was observed
binding to hclec14a-CTLD-Fc [3]: cross-reactivity to human and mouse CTLDs
binding to mclec14a-CTLD-Fc [4]: cross-reactivity to human and mouse CTLDs
inhibitory activity against HUVEC tube formation [5]: inhibitory activity against tube formation, comparable to the parent antibody
